Test results: article PMC12038006, “Structure and mechanism of a mycobacterial isoniazid efflux pump MsRv1273c/72c with a degenerate nucleotide-binding site” (Nature Communications, 2025)

Key:
[1] = target: MsRv1272c (MSMEG_5009) from Mycobacterium smegmatis (Mycobacterium smegmatis (Msm) mc2 155) (UniProt A0R272); test: SEC
[2] = target: MsRv1272c (MSMEG_5009) from Mycobacterium smegmatis (Mycobacterium smegmatis (Msm) mc2 155) (UniProt A0R272)

MsRv1273c (MSMEG_5008) from Mycobacterium smegmatis (from UniProt A0R271 1-578) (natural protein)
stoichiometry N [1]: 1 | basal ATPase activity of the MsRv1273c/72c complex in peptidiscs (malachite green) (nM Pi min^–1 mg^–1) [2]: 148 | basal ATPase activity of the MsRv1273c/72c complex in proteoliposomes (malachite green) (nM Pi min^–1 mg^–1) [2]: 181
